Assay results reported in paper PMC3938503.

Target: T1, CRPM (cAMP receptor protein of Mtb) (Mycobacterium tuberculosis) (UniProt P9WMH3)
T1 sequence: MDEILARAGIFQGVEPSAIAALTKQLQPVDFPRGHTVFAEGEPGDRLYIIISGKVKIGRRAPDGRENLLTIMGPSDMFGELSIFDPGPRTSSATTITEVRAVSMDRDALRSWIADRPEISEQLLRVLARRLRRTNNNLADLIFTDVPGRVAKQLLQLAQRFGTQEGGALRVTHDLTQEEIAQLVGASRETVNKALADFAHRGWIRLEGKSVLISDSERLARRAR
Test: EMSA

Sequence: TCAGCGACCGTCAGCACGCCAGTTCAATACGGCGAGAAGCGCGTTCTCATCGAAAGTCGGTCAAGCTGGCGGACTGAGCACTGCTCTCCGGGCTTGACCGGGGCCTCTCCCAGCTACGCCCCGAGCGTGTGCCCTGCCGACACGCGGGAACAAGACCCGCACGACCAGCGTTAGCATGCTCAGTAAGTTGAGTGCATCAGGCTCAGCTCTGAATTGACAGCACACCGCCGTCGAGGCAAGCTTGAGCGGGGTGCACTCATCATAGTGCAGGAAAGAAGCTCTACATATTCAGGAGGATTCACC (double strand) [dnaK-303]
- binding signal (fold reduced vs dnaK-346): 2
